Positions count from the first letter of the chain named.

The text below walks through data of patent US20070092518A1 (published 2007).

B1: SEQ ID NO 95 (Fab, V domains shown)
VH: EVQLTESGGGLVQPGGSLRLSCRASGSTFSNHYMNWVRQAPGKGLEWIGEIRSKSSNSATSYAESVKGRFIISRDDNKTSLYLEMNSLKTEDTAEYYCARNYYGSTYDYWGQGTLVTVS
VL: EIVLTQSPDFQSVTPKEKVTITCRASQFVGSSIHWYQQKPDQSPKLLIKYASESMSGVPSRFSGSGSGTDFTFTISSLEAEDAATYYCQQSHSWPFTFGPGTKVDIK
notes: Fab, E. coli lysate
B2: SEQ ID NO 97 (Fab, V domains shown)
VH: B1 VH with Y33W, S58G, K78G, S80D, R100Q
VL: B1 VL
notes: Fab, E. coli lysate
B3: SEQ ID NO 105 (Fab, V domains shown)
VH: B1 VH with R23A, S27F, T28I, S58G, K78G, T79N, Y82T, R100Q, Y107P
VL: B1 VL
notes: Fab, E. coli lysate
B4: SEQ ID NO 99 (Fab, V domains shown)
VH: B1 VH with T5V, R23A, T28I, S58G, S61H, T79N, R100Q
VL: B1 VL
notes: Fab, E. coli lysate
B5: SEQ ID NO 130 (Fab, V domains shown)
VH: B1 VH with T5V, S27F, T28I, S56I, N57Y, S61H, K78G, T79N, R100Q
VL: B1 VL
notes: Fab, E. coli lysate
B6: SEQ ID NO 110 (Fab, V domains shown)
VH: B1 VH with T5V, R23A, T28I, Y33W, S56I, S80D, R100Q, Y107P
VL: B1 VL
notes: Fab, E. coli lysate
B7: SEQ ID NO 131 (Fab, V domains shown)
VH: B1 VH with R23A, G26Q, S27F, D76G, K78G, Y82T, R100Q
VL: B1 VL
notes: Fab, E. coli lysate
B8: SEQ ID NO 102 (Fab, V domains shown)
VH: B1 VH with T5V, S27F, T28I, Y33W, S56I, S58G, S61H
VL: B1 VL
notes: Fab, E. coli lysate
B9: SEQ ID NO 145 (Fab, V domains shown)
VH: B1 VH with G26Q, S58G, K78G, T79N, S80D, R100Q
VL: B1 VL
notes: Fab, E. coli lysate
B10: SEQ ID NO 141 (Fab, V domains shown)
VH: B1 VH with T5V, R23A, Y33W, S56I, N57Y, S58G, D76G, T79N
VL: B1 VL
notes: Fab, E. coli lysate
B11: SEQ ID NO 104 (Fab, V domains shown)
VH: B1 VH with G26Q, S27F, T28I, S56I, S61H, T79N, S80D, R100Q, Y107P
VL: B1 VL
notes: Fab, E. coli lysate
B12: SEQ ID NO 108 (Fab, V domains shown)
VH: B1 VH with R23A, G26Q, S27F, S56I, N57Y, D76G, T79N, Y82T, R100Q
VL: B1 VL
notes: Fab, E. coli lysate
B13: SEQ ID NO 127 (Fab, V domains shown)
VH: EVQLTESGGGLVQPGGSLRLSCAASQFIFSNHWMNWVRQAPGKGLEWIGEIRSKSSYGATSYAESVKGRFIISRDDNGNSLTLEMNSLKTEDTAEYYCARNYYGSTPDYWGQGTLVTVS
VL: B1 VL
notes: Fab, E. coli lysate
B14: SEQ ID NO 144 (Fab, V domains shown)
VH: B1 VH with T5V, T28I, D76G, T79N, S80D, R100Q
VL: B1 VL
notes: Fab, E. coli lysate
B15: SEQ ID NO 137 (Fab, V domains shown)
VH: B1 VH with T5V, R23A, N57Y, D76G, K78G, S80D, Y82T, R100Q
VL: B1 VL
notes: Fab, E. coli lysate
B16: SEQ ID NO 132 (Fab, V domains shown)
VH: B13 VH with T5V, F27S, W33Y, S56I, G78K
VL: B1 VL
notes: Fab, E. coli lysate
B17: SEQ ID NO 123 (Fab, V domains shown)
VH: B13 VH with A23R, I28T, W33Y, S80D, T82Y, P107Y
VL: B1 VL
notes: Fab, E. coli lysate
B18: SEQ ID NO 140 (Fab, V domains shown)
VH: B1 VH with R23A, S61H, K78G
VL: B1 VL
notes: Fab, E. coli lysate
B19: SEQ ID NO 126 (Fab, V domains shown)
VH: B1 VH with T5V, S56I, N57Y, S61H, D76G, T79N, R100Q
VL: B1 VL
notes: Fab, E. coli lysate
B20: SEQ ID NO 100 (Fab, V domains shown)
VH: B1 VH with G26Q, S27F, T28I, S56I, S58G, S61H, S80D
VL: B1 VL
notes: Fab, E. coli lysate
B21: SEQ ID NO 109 (Fab, V domains shown)
VH: B1 VH with T5V, T28I, Y33W, S61H, T79N, S80D, Y82T
VL: B1 VL
notes: Fab, E. coli lysate
B22: SEQ ID NO 115 (Fab, V domains shown)
VH: B1 VH with T5V, T28I, S56I, S61H, D76G, K78G, R100Q
VL: B1 VL
notes: Fab, E. coli lysate
B23: SEQ ID NO 138 (Fab, V domains shown)
VH: B1 VH with S27F, T28I, D76G, T79N, S80D, Y107P
VL: B1 VL
notes: Fab, E. coli lysate
B24: SEQ ID NO 150 (Fab, V domains shown)
VH: B1 VH with T5V, R23A, G26Q, S27F, S56I, S58G, K78G, S80D
VL: B1 VL
notes: Fab, E. coli lysate
B25: SEQ ID NO 134 (Fab, V domains shown)
VH: B13 VH with Q26G, F27S, S56I, Y57N, S61H, D76G, N79T, T82Y
VL: B1 VL
notes: Fab, E. coli lysate
B26: SEQ ID NO 98 (Fab, V domains shown)
VH: B1 VH with S27F, Y33W, S58G, S61H, D76G, S80D, Y107P
VL: B1 VL
notes: Fab, E. coli lysate
B27: SEQ ID NO 111 (Fab, V domains shown)
VH: B1 VH with S27F, T28I, S56I, S61H, K78G, T79N, Y107P
VL: B1 VL
notes: Fab, E. coli lysate
B28: SEQ ID NO 101 (Fab, V domains shown)
VH: B1 VH with T5V, S27F, K78G, T79N, R100Q, Y107P
VL: B1 VL
notes: Fab, E. coli lysate
B29: SEQ ID NO 136 (Fab, V domains shown)
VH: B13 VH with F27S, S56I, G58S, S61H, N79T, T82Y, R100Q
VL: B1 VL
notes: Fab, E. coli lysate
B30: SEQ ID NO 148 (Fab, V domains shown)
VH: B13 VH with T5V, A23R, W33Y, S56I, D76G, S80D, T82Y, R100Q, P107Y
VL: B1 VL
notes: Fab, E. coli lysate
B31: SEQ ID NO 118 (Fab, V domains shown)
VH: B13 VH with T5V, I28T, S56I, Y57N, G58S, G78K, T82Y
VL: B1 VL
notes: Fab, E. coli lysate
B32: SEQ ID NO 112 (Fab, V domains shown)
VH: B1 VH with T5V, S27F, Y33W, S56I, N57Y, S61H, S80D, Y107P
VL: B1 VL
notes: Fab, E. coli lysate
B33: SEQ ID NO 135 (Fab, V domains shown)
VH: B1 VH with T5V, R23A, G26Q, T28I, Y33W, D76G, S80D, R100Q
VL: B1 VL
notes: Fab, E. coli lysate
B34: SEQ ID NO 117 (Fab, V domains shown)
VH: B13 VH with I28T, Y57N, G58S, S61H, D76G, G78K, N79T
VL: B1 VL
notes: Fab, E. coli lysate
B35: SEQ ID NO 106 (Fab, V domains shown)
VH: B13 VH with T5V, Y57N, D76G, G78K, N79T, S80D, R100Q, P107Y
VL: B1 VL
notes: Fab, E. coli lysate
B36: SEQ ID NO 151 (Fab, V domains shown)
VH: B13 VH with T5V, W33Y, S56I, S61H, D76G
VL: B1 VL
notes: Fab, E. coli lysate
B37: SEQ ID NO 146 (Fab, V domains shown)
VH: B13 VH with T5V, Q26G, S56I, Y57N, S61H, D76G, G78K, S80D
VL: B1 VL
notes: Fab, E. coli lysate
B38: SEQ ID NO 124 (Fab, V domains shown)
VH: B1 VH with T5V, R23A, G26Q, S61H, D76G, T79N, S80D, Y107P
VL: B1 VL
notes: Fab, E. coli lysate
B39: SEQ ID NO 149 (Fab, V domains shown)
VH: B13 VH with A23R, W33Y, G58S, S61H, T82Y, R100Q, P107Y
VL: B1 VL
notes: Fab, E. coli lysate

T1 sequence (P01375 77-233 limits assumed): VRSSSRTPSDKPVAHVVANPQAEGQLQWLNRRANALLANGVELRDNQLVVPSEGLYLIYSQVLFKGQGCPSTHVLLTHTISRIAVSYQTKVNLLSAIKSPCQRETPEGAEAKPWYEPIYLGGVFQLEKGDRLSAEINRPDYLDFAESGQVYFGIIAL

The test concerns the target T1, human tumor necrosis factor-α (rHuTNF-alpha, Biosource) (human, UniProt P01375 77-233).
T1 construct: Bought recombinant protein coated on ELISA plates; The TNFα of the Biacore assay is not described further; also called TNFα; human TNFα
Description: solid-phase ELISA, Fab lysate on coated rHuTNF-alpha. The method in brief: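 E. coli lysates expressing His-tagged Fab (pTrcHis2A) were incubated 2 h at RT on wells coated with 1 μg/ml rHuTNF-α and blocked with BSA. Bound Fab was detected with biotinylated anti-human kappa plus penta-His conjugates, then streptavidin-POD and TMB. Absorbance was read at 450 nm.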
Take B1: the binding result is “binds”.

Consider B2, for which the binding result is reported as “binds”.

As to B3, the binding result is listed as “binds”. In the case of B4 it was “binds”. The entry for B5 is “binds”; for B6 it is “binds”; for B7 it is “binds”. In the case of B8 it was “binds”. With B9, the binding result is “binds”. With B10, the binding result is “binds”. In the case of B11 it was “binds”; in that of B12, “binds”; in that of B13, “binds”. On to B14, for which the binding result is “binds”.

B15: the binding result is “binds”. The entry for B16 is “binds”. With B17, the binding result was “binds”.

For the molecule B18, the binding result was “binds”. In the case of B19 it was “binds”; in that of B20, “binds”; in that of B21, “binds”. The entry for B22 is “binds”. Regarding B23, the binding result is given as “binds”. In the case of B24 it was “binds”; in that of B25, “binds”; in that of B26, “binds”. With B27, the binding result was “binds”. As for B28, the binding result is “binds”. The entry for B29 is “binds”; for B30 it is “binds”; for B31 it is “binds”. The entry for B32 is “binds”. In the case of B33 it was “binds”; in that of B34, “binds”; in that of B35, “binds”. For the molecule B36, the binding result is “binds”.

As for B37, the binding result is reported as “binds”. Regarding B38, the binding result is “binds”. As for B39, the binding result is recorded as “binds”.
